IntAct's records for PubMed 31515488

B1: Nanos homolog 2 (Homo sapiens), P60321 (parent)
chain: MQLPPFDMWKDYFNLSQVVWALIASRGQRLETQEIEEPSPGPPLGQDQGLGAPGANGGLGTLCNFCKHNGESRHVYSSHQLKTPDGVVVCPILRHYVCPVCGATGDQAHTLKYCPLNGGQQSLYRRSGRNSAGRRVKR
B2: Phospholipid scramblase 4 (Homo sapiens), Q9NRQ2 (parent)
chain: MSGVVPTAPEQPAGEMENQTKPPDPRPDAPPEYNSHFLPGPPGTAVPPPTGYPGGLPMGYYSPQQPSTFPLYQPVGGIHPVRYQPGKYPMPNQSVPITWMPGPTPMANCPPGLEYLVQLDNIHVLQHFEPLEMMTCFETNNRYDIKNNSDQMVYIVTEDTDDFTRNAYRTLRPFVLRVTDCMGREIMTMQRPFRCTCCCFCCPSARQELEVQCPPGVTIGFVAEHWNLCRAVYSIQNEKKENVMRVRGPCSTYGCGSDSVFEVKSLDGISNIGSIIRKWNGLLSAMADADHFDIHFPLDLDVKMKAMIFGACFLIDFMYFERSPPQRSR
B3: Ribosomal RNA-processing protein 7 homolog A (Homo sapiens), Q9Y3A4 (parent)
chain: MVARRRKCAARDPEDRIPSPLGYAAIPIKFSEKQQASHYLYVRAHGVRQGTKSTWPQKRTLFVLNVPPYCTEESLSRLLSTCGLVQSVELQEKPDLAESPKESRSKFFHPKPVPGFQVAYVVFQKPSGVSAALALKGPLLVSTESHPVKSGIHKWISDYADSVPDPEALRVEVDTFMEAYDQKIAEEEAKAKEEEGVPDEEGWVKVTRRGRRPVLPRTEAASLRVLERERRKRSRKELLNFYAWQHRESKMEHLAQLRKKFEEDKQRIELLRAQRKFRPY
B4: Protein phosphatase 1 regulatory inhibitor subunit 16B (Homo sapiens), Q96T49 (parent)
chain: MASHVDLLTELQLLEKVPTLERLRAAQKRRAQQLKKWAQYEQDLQHRKRKHERKRSTGGRRKKVSFEASVALLEASLRNDAEEVRYFLKNKVSPDLCNEDGLTALHQCCIDNFEEIVKLLLSHGANVNAKDNELWTPLHAAATCGHINLVKILVQYGADLLAVNSDGNMPYDLCEDEPTLDVIETCMAYQGITQEKINEMRVAPEQQMIADIHCMIAAGQDLDWIDAQGATLLHIAGANGYLRAAELLLDHGVRVDVKDWDGWEPLHAAAFWGQMQMAELLVSHGASLSARTSMDEMPIDLCEEEEFKVLLLELKHKHDVIMKSQLRHKSSLSRRTSSAGSRGKVVRRASLSDRTNLYRKEYEGEAILWQRSAAEDQRTSTYNGDIRETRTDQENKDPNPRLEKPVLLSEFPTKIPRGELDMPVENGLRAPVSAYQYALANGDVWKVHEVPDYSMAYGNPGVADATPPWSSYKEQSPQTLLELKRQRAAAKLLSHPFLSTHLGSSMARTGESSSEGKAPLIGGRTSPYSSNGTSVYYTVTSGDPPLLKFKAPIEEMEEKVHGCCRIS
partner: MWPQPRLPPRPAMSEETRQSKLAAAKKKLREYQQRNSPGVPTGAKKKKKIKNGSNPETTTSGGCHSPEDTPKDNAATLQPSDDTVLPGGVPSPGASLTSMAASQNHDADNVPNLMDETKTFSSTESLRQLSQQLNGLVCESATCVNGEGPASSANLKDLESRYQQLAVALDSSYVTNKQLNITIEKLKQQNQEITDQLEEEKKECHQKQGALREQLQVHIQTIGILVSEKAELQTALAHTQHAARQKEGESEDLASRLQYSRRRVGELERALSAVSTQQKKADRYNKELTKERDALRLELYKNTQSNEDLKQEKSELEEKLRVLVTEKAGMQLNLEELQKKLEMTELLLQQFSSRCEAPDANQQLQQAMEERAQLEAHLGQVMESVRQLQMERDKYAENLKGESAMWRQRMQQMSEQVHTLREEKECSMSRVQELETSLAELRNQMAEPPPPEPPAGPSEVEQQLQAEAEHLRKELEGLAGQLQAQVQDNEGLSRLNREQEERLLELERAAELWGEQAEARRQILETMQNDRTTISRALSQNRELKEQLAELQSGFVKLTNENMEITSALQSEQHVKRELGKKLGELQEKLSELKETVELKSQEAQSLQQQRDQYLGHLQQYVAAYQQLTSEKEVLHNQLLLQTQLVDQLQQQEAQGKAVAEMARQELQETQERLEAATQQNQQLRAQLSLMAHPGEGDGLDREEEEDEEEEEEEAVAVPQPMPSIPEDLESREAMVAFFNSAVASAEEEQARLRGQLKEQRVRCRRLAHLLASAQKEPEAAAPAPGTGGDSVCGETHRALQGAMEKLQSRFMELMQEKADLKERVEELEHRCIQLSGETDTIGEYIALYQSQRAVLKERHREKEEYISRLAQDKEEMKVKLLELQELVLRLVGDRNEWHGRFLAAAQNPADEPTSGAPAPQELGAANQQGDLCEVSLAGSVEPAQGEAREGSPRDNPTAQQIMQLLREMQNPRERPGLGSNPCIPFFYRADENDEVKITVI
B5: Notch homolog 2 N-terminal-like protein A (Homo sapiens), Q7Z3S9 (parent)
chain: MCVTYHNGTGYCKCPEGFLGEYCQHRDPCEKNRCQNGGTCVAQAMLGKATCRCASGFTGEDCQYSTSHPCFVSRPCLNGGTCHMLSRDTYECTCQVGFTGKECQWTDACLSHPCANGSTCTTVANQFSCKCLTGFTGQKCETDVNECDIPGHCQHGGTCLNLPGSYQCQCLQGFTGQYCDSLYVPCAPSPCVNGGTCRQTGDFTFECNCLPETVRRGTELWERDREVWNGKEHDEN
partner: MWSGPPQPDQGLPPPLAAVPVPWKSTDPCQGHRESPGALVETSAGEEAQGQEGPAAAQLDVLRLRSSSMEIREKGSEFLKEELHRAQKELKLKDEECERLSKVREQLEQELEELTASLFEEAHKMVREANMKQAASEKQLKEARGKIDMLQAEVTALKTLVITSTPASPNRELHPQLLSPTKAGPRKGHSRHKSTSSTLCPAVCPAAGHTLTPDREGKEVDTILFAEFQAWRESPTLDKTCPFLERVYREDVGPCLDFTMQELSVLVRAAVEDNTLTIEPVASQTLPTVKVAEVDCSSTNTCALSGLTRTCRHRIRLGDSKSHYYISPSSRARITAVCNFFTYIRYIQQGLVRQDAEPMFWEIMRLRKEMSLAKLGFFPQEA
B6: Isoform 1 of Destrin (Homo sapiens), P60981-1 (parent)
chain: MASGVQVADEVCRIFYDMKVRKCSTPEEIKKRKKAVIFCLSADKKCIIVEEGKEILVGDVGVTITDPFKHFVGMLPEKDCRYALYDASFETKESRKEELMFFLWAPELAPLKSKMIYASSKDAIKKKFQGIKHECQANGPEDLNRACIAEKLGGSLIVAFEGCPV

Variants of: B1
Conditions: with magac_human MAGEA12, P43365
Sequence of magac_human MAGEA12, P43365 (P43365 whole entry): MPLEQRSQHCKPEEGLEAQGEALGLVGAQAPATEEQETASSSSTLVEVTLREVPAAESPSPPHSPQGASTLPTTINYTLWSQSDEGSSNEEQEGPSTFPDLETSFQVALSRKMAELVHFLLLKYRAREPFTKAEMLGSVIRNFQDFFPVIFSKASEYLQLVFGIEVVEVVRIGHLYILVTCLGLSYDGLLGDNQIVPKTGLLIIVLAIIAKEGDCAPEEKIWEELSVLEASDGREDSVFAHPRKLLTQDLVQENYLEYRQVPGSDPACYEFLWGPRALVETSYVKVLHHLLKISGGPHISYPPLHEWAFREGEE

Row | Variant | effect of a mutation on the interaction
1 | F13L | with no effect
2 | H68Q | with no effect

Now from value to variant:

Row | effect of a mutation on the interaction | Variant
3 | with no effect | R26Q
4 | with no effect | R73C

Variants of: B1
Conditions: with ccdb1_human CCNDBP1, O95273
Sequence of ccdb1_human CCNDBP1, O95273 (O95273 whole entry): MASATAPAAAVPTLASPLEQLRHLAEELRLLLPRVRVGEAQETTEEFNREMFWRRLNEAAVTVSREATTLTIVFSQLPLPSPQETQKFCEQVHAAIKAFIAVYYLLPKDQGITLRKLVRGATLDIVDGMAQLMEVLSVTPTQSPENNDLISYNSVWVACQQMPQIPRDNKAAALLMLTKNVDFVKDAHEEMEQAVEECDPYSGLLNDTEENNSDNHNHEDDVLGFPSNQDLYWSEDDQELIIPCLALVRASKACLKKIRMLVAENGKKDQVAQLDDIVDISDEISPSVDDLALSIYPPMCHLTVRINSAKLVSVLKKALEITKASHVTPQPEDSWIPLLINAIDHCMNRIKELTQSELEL

Row | Variant | effect of a mutation on the interaction
5 | F13L | with no effect
6 | H68Q | with no effect

Next, values leading:

Row | effect of a mutation on the interaction | Variant
7 | with no effect | R26Q
8 | with no effect | R73C

Variants of: B2
Conditions: with pls1_human PLSCR1, O15162
Sequence of pls1_human PLSCR1, O15162 (O15162 whole entry): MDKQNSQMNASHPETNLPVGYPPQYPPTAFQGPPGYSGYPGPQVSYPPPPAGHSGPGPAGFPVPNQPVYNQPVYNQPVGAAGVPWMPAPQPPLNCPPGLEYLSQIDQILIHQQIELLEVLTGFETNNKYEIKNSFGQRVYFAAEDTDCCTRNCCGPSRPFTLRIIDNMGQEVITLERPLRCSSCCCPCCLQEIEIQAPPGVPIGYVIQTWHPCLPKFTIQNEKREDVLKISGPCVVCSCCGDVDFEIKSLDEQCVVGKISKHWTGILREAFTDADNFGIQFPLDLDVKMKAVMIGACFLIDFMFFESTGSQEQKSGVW

Row | Variant | effect of a mutation on the interaction
9 | N34S | with no effect
10 | I155V | with no effect
11 | A107S | with no effect

Variants of: B2
Conditions: with mtus2_human MTUS2, Q5JR59
Sequence of mtus2_human MTUS2, Q5JR59 (Q5JR59 whole entry): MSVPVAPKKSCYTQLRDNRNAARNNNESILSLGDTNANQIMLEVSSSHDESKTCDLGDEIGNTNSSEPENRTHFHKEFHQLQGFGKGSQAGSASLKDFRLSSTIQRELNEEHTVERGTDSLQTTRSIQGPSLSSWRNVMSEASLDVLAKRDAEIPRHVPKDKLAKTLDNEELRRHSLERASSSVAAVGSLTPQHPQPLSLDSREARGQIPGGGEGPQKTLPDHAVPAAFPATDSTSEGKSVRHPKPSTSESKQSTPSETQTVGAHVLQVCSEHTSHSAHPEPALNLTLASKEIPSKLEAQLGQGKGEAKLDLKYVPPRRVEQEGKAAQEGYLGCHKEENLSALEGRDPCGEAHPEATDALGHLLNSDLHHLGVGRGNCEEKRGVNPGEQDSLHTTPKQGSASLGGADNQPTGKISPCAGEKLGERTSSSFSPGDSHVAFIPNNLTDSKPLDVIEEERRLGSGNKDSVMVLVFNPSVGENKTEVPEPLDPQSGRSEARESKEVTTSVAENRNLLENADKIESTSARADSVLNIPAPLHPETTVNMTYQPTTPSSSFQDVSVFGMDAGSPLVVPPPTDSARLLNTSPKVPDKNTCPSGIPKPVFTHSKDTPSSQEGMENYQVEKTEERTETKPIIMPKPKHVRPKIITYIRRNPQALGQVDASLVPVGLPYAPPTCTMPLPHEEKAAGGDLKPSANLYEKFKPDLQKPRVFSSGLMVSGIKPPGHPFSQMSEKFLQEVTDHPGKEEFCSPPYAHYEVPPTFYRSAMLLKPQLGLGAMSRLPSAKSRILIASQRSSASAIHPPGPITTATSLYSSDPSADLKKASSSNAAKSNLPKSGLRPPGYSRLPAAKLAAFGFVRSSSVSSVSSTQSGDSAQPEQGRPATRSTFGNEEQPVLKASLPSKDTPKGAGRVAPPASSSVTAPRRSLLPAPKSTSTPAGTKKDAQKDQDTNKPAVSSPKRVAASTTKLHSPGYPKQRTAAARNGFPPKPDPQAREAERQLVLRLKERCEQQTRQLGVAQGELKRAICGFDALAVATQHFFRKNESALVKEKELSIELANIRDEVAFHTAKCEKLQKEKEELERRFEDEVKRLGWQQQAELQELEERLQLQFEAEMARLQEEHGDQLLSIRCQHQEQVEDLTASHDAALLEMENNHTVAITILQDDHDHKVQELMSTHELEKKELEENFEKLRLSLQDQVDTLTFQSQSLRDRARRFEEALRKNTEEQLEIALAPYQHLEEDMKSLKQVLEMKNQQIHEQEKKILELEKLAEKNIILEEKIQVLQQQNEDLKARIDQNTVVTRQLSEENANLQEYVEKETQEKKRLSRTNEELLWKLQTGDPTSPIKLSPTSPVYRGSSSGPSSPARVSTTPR

Row | Variant | effect of a mutation on the interaction
12 | N34S | with no effect
13 | I155V | with no effect
14 | A107S | with no effect

Variants of: B2
Conditions: with nt2na_human NOTCH2NLA

Row | Variant | effect of a mutation on the interaction
15 | N34S | with no effect
16 | I155V | with no effect
17 | A107S | with no effect

Variants of: B3
Conditions: with tfp11_human TFIP11, Q9UBB9
Sequence of tfp11_human TFIP11, Q9UBB9 (Q9UBB9 whole entry): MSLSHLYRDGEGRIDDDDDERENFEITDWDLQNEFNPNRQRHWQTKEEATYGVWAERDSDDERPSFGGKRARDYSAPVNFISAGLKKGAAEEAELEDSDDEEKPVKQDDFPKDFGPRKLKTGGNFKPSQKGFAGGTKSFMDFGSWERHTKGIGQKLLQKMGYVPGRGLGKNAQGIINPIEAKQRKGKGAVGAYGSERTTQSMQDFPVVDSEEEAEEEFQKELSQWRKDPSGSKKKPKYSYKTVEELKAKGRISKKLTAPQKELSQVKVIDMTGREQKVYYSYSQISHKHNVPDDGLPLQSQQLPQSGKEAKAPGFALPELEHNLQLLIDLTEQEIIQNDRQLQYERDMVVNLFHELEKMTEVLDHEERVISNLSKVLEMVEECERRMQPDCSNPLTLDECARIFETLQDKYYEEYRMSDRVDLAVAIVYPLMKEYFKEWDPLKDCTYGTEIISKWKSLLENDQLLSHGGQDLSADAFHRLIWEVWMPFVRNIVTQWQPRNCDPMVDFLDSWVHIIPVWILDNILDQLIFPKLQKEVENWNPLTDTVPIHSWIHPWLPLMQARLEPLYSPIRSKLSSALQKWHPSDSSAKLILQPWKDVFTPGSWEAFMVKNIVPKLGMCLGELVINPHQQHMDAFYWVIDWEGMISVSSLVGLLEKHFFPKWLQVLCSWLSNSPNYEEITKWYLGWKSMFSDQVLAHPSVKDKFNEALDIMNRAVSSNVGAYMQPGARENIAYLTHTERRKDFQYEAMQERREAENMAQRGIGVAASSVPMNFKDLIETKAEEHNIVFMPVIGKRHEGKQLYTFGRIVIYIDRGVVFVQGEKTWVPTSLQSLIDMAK

Row | Variant | effect of a mutation on the interaction
18 | V85I | with no effect
19 | L75M | disrupting interaction strength

Variants of: B4
Conditions: with goga2_human GOLGA2, Q08379

Row | Variant | effect of a mutation on the interaction
20 | P519S | with no effect

Variants of: B5
Conditions: with RAB3IL1, Q8TBN0

Row | Variant | effect of a mutation on the interaction
21 | R74Q | with no effect
22 | A115T | with no effect

Variants of: B6
Conditions: with cof2_human CFL2, Q9Y281

Row | Variant | effect of a mutation on the interaction
23 | G139E | with no effect

Variants of: B6
Conditions: with actb_human ACTB

Row | Variant | effect of a mutation on the interaction
24 | G139E | with no effect

Variants of: B6
Conditions: with actg_human ACTG1, P63261

Row | Variant | effect of a mutation on the interaction
25 | G139E | with no effect
